According to IntAct's records for PubMed 17717528:

B1: Circadian clock oscillator protein KaiC (Thermosynechococcus elongatus (strain BP-1)), Q79V60 (parent)
chain: MTNLPEHQSSPTEQSSAEVKKIPTMIEGFDDISHGGLPQGRTTLVSGTSGTGKTLFAVQFLYNGITIFNEPGIFVTFEESPQDIIKNALSFGWNLQSLIDQGKLFILDASPDPDGQEVAGDFDLSALIERIQYAIRKYKATRVSIDSVTAVFQQYDAASVVRREIFRLAFRLKQLGVTTIMTTERVDEYGPVARFGVEEFVSDNVVILRNVLEGERRRRTVEILKLRGTTHMKGEYPFTINNGINIFPLGAMRLTQRSSNVRVSSGVKTLDEMCGGGFFKDSIILATGATGTGKTLLVSKFLETGCQQGERALLFAYEESRAQLSRNASSWGIDFEELERRGLLRIICAYPESAGLEDHLQIIKSEIADFKPSRVAIDSLSALARGVSNNAFRQFVIGVTGFAKQEEITGFFTNTTDQFMGSNSITESHISTITDTILLLQYVEIRGEMSRAINVFKMRGSWHDKGIREYVITEKGAEIRDSFRNFEGIISGTPTRISVDEKTELARIAKGMQDLESE
partner: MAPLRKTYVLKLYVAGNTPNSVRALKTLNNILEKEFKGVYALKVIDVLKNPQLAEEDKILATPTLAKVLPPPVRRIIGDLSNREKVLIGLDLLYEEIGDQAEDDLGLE
B2: Circadian clock oscillator protein KaiC (Thermosynechococcus elongatus (strain BP-1)), Q79V60 (parent)
chain: B1 chain
partner: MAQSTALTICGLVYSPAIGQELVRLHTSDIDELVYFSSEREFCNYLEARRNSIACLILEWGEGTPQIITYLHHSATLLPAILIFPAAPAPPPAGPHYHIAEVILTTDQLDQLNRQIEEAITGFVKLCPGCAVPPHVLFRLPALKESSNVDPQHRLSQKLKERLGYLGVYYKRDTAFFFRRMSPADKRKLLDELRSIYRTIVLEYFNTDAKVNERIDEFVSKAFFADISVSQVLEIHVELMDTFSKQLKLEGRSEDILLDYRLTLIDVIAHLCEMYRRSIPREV

Variants of: B1
Conditions: with kaib_thevb kaiB

Row | effect of a mutation on the interaction | Variant
1 | disrupting interaction | T432A

Variants of: B2
Conditions: with kaia_thevb kaiA

Row | effect of a mutation on the interaction | Variant
2 | decreasing interaction | T432A
